Data: patent US20110293610A1 (published 2011)

Assays:
[1] = target: T1, B Lymphocyte Stimulator, soluble form (human) (human, UniProt Q9Y275 134-285, biotinylated with NHS-biotin where used as biotinylated B Lymphocyte Stimulator); experiment: BIAcore 2000, purified scFv over low density (500 RU) BLyS surface
T1 construct: Coated on plastic, captured on streptavidin plates, amine-coupled to a CM5 chip or free in solution, depending on the assay; also called BLyS; immobilized B Lymphocyte Stimulator

TNF-alpha = target: T2, TNF-alpha (human, UniProt P01375 77-233); experiment: phage ELISA
T2 construct: also called TNFα; TNF-α
T2 sequence (P01375 77-233 limits assumed): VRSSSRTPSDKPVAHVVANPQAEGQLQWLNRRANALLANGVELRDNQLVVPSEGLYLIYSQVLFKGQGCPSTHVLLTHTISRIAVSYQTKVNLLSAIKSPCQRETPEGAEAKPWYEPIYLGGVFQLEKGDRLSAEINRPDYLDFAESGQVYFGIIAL

LIGHT = LIGHT (human, UniProt O43557 74-240, limits assumed); experiment: phage ELISA
Chain of LIGHT (O43557 74-240 limits assumed): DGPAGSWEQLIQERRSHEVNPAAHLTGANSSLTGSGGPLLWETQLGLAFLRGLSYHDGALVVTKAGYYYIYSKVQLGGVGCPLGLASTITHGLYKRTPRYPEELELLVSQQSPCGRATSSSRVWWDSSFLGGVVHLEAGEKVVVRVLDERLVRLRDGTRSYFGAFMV

TNF-beta = target: T3, TNF-beta (human, UniProt P01374 35-205); experiment: phage ELISA
T3 construct: also called TNFβ; Tumour Necrosis Factor-beta
T3 sequence (looked up): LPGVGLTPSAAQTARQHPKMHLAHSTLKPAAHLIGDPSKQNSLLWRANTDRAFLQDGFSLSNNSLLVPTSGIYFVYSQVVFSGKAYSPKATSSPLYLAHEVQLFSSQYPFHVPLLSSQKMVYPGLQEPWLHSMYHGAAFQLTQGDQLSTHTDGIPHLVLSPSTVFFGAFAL

TRAIL = target: T4, TRAIL (human, UniProt P50591 114-281); experiment: phage ELISA
T4 construct: also called TNF-related apoptosis inducing ligand
T4 sequence (P50591 114-281 limits assumed): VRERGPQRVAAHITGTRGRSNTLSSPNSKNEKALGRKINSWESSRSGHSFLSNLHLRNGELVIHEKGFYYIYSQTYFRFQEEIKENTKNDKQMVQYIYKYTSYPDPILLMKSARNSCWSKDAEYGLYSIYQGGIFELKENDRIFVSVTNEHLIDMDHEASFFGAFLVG

Bovine serum albumin = target: T5, Bovine serum albumin (bovine, UniProt P02769 25-607); experiment: phage ELISA
T5 construct: also called BSA
T5 sequence (P02769 25-607 limits assumed): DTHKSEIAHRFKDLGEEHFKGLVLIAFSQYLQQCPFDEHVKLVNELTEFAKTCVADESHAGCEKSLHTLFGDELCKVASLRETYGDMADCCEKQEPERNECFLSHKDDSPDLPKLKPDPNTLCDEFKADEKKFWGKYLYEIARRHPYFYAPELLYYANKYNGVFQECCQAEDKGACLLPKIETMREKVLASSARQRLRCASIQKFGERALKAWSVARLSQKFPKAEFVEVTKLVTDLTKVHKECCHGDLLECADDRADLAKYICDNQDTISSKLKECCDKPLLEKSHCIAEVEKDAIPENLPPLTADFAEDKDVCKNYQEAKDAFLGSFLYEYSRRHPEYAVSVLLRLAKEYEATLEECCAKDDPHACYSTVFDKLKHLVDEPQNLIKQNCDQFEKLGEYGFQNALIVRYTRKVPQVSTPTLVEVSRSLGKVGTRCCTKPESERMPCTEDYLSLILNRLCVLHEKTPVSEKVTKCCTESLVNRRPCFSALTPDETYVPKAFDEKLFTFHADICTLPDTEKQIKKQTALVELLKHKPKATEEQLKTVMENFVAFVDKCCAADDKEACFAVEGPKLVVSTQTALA

[2] = target: T1, B Lymphocyte Stimulator, soluble form …; experiment: phage ELISA, biotinylated BLyS on streptavidin plates
[3] = target: T1, B Lymphocyte Stimulator, soluble form …; experiment: BIAcore, IgG1 captured on low-density Protein A surface, BLyS passed over
Description: Briefly, antibodies were captured on low-density Protein A surfaces and B Lymphocyte Stimulator was passed over at various flow rates. The binding of B Lymphocyte Stimulator to immobilized antibody was detected by changes in […] that were proportional to the amount of bound B Lymphocyte Stimulator. Binding values were calculated using software provided by the manufacturer.

[4] = target: T1, B Lymphocyte Stimulator, soluble form …; experiment: cell-based or functional assay
[5] = target: T6, membrane-bound B Lymphocyte Stimulator on U937 plasma membrane preparations (human, UniProt Q9Y275 1-285); experiment: phage ELISA
T6 construct: Natural protein in plasma membrane fractions of the human cell line U937 coated on ELISA plates; also called U937 plasma membranes; U937 membranes

[6] = target: T1, B Lymphocyte Stimulator, soluble form …; experiment: phage ELISA
[7] = target: T7, HIS-tagged B Lymphocyte Stimulator (human, UniProt Q9Y275 71-285); experiment: phage ELISA
T7 construct: Expressed in E. coli from pQE9 and purified; also called histidine-tagged B Lymphocyte Stimulator; HIS-B Lymphocyte Stimulator; not shown: histidine tag of the pQE9 vector

[8] = target: T8, biotinylated B Lymphocyte Stimulator, soluble form (human, UniProt Q9Y275 134-285, biotinylated with NHS-biotin, molar ratio 20:1 biotin:protein); experiment: purified scFv, receptor binding inhibition on IM9 cells
T8 construct: also called bio-B Lymphocyte Stimulator; free B Lymphocyte Stimulator

[9] = target: T7, HIS-tagged B Lymphocyte Stimulator; experiment: BIAcore, purified scFv over low density (500 RU) HIS-BLyS surface
Description: The chip containing the low density HIS-B Lymphocyte Stimulator surface was inserted into the BIAcore. […] The dilution series was then injected sequentially over the blank control (flow cell 1) and low density HIS-B Lymphocyte Stimulator surface (flow cell 2) using the following program: […]

B1: I003C02 (scFv)
scFv: EVQLVQSGAEVKKPGSSVKVSCQASGGNFNSYGVSWVRQAPGQGLEWMGRIIPNVGTANYAQKFQGRVTITADKLTSTVYLEVRSLRSEDTAVYYCARGDYDILTGYPAECFQIWGQGTMVTVSSGGGGSGGGGSGGGGSAQAVLTQPSSASGTPGQRVTISCSGSTSNIGTNTVNWYQQLPGTAPKLLIYSNHLRPSGVPDRFSGSKSGTSASLAISGLQSEDEADYYCSARDDSLNGVVFGGGTKVTVLG
With B1 the koff [1] was 0.006 s⁻¹.

B2: I075F12 (scFv)
scFv: QVQLVQSGAEVKKPGSSVKVSCKASGGTVSSRTISWVRQAPGQGLEWMGGSLPPSGAPIYAQKFQGRVAITADALTNTAFMELRSLKSDDTAVYYCARDQGRYLDLWGQGTMVTVSSGGGGSGGGGSGGGGSAQAVLTQPSSASGTPGQRATISCSGSSSDIGINAVNWYKQLPRTAPKLLIYRNNQRPSGVPDRFSGSKSGTSASLAIIGLQSEDEADYYCATWDDSLTAYVFGTGTKVTVLG
B2: no binding (TNF-alpha); no binding (LIGHT); no binding (TNF-beta). B2: no binding (TRAIL); no binding (Bovine serum albumin); binds [2].

B3: I006D08 (whole IgG1) (antibody, V domains shown)
VH: QVQLQQSGAEVKKPGSSVRVSCKASGGTFNNNAINWVRQAPGQGLEWMGGIIPMFGTAKYSQNFQGRVAITADESTSTASMELSSLRSEDTAVYYCARSRDLLLFPHYGMDVWGRGTMVTVSS
VL: SSELTQDPAVSVALGQTVRVTCQGDSLRSYYASWYQQKPGQAPVLVIYGKNNRPSGIPDRFSGSSSGNTASLTITGAQAEDEADYYCNSRDSSGNHWVFGGGTELTVLG
notes: constant regions (human IgG1)
With B3 the “fold higher Kd than I116A01” value [3] was about 2 fold, the “fold higher off rate (kd) than I116A01” value [3] was 2 fold and the “IC50 for the inhibition of human B Lymphocyte Stimulator induced-proliferation of murine B cells (3H-thymidine incorporation)” value [4] was 0.09 nM.

B4: I082A02 (scFv)
scFv: QVQLVQSGAEVKEPGASVKISCEASGYTFTNNFIDWVRQAPGQGLEWMGTISGSTGNTYYKQGFQGRVTMTRDTATSTAYLEVRGLTSEDTAIYFCARPAASSRGPKDAFDIWGQGTLVTVSSGGGGSGGGGSGGGGSQSVLTQPPSVSAAPGQKVTISCSGSTSNIGNNYVSWYQQHPGKAPKLMIYDVSKRPSGVPDRFSGSKSGNSASLDISGLQSEDEADYYCAAWDDSLSEFLFGTGTKLTVLG
B4: binds [5]; no binding [6]; binds [7].

B5: I003F12S (scFv)
scFv: QVQLLQSAAELKKPGQSLKISCKGSGFTFTTYWIGWVRQLPGKGLEWMGIIYPGDSHTTYSPSFEGHVNISVDKSINTAYLQWSSLKASDTAMYYCARHDDDVLTGYYFESWGQGTMVTVSSGGGGSGGGGSGGGGSQSVLTQPASVSGSPGQSITISCTGTSSDVGGYNYVSWYQQHPGKAPKLMIYEGSKRPSGVSNRFSGSKSGNTASLTISGLQAEDEADYYCSSYTTRSTRVFGGGTKLTVLG
B5: binds [8].

B6: I079C01 (scFv)
scFv: EVQLVESGGGLVQPGGSLRLSCAASGFTFSDYGMHWVRQRPGKGLEWIAFIGSDGSNKYYGDTVKGRFTISRDNAKNSLYLQMNSLRAEGTAVYYCARDWDMDVWGQGTMVTVSSGGGGSGGGGSGGGGSHVILTQPRSVSGSPGQSVTISCTGTSSDVGGYHYVSWYQQHPGKAPRLMIYEVTKRPSGVSNRFSGSKSGNTASLTISGVQAEDEADYYCSSYTSASTVIFGGGTKLTVLG
B6: binds [5]; no binding [6]; binds [7].

B7: I082C03 (scFv)
scFv: QVQLVQSGSEVKKPGASVKVSCKTSGYSFTGYFIHWVRQAPGQGLEWMGWINPNSGGTNLAQKFQGRVTMTRDTSISTAYMELSSLKSDDTAVYYCARDASRDIVVLPLAIWGKGTLVTVSSGGGGSGGGGSGGGGSDIQMTQSPSTLSASIGDRVTITCRASEGIYHWLAWYQQKPGKAPKLLIYKASSLASGAPSRFSGSGSGTDFTLTISSLQPDDFATYYCQQYSNYPLTFGGGTKLEIKR
Work on B7 yielded a Kd [9] of 20 nM and a koff [9] of 0.002 s⁻¹.
